Laboratory results: patent US20210388087A1 (Chugai, published 2021)

Each binder was assayed against T1, CD3 epsilon homodimer protein (UniProt P07766 23-126) (assay: SPR, CD3 epsilon homodimer on chip, one-arm antibody as analyte;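 further: surface plasmon resonance at 25 °C with CD3 epsilon homodimer amine-coupled to a CM4 sensor chip, antibody injected as analyte, HBS-EP+ as running buffer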).
T1 construct: also called CD3 (CD3 epsilon)
T1 sequence (P07766 23-126): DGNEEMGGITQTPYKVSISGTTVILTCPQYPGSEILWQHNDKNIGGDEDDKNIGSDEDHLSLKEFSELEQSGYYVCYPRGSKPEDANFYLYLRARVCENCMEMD

KD ratio (KD of CE115HA000/KD of altered form) | Binder
6.37 | CE115HA000 I51D (antibody, human IgG1, kappa, L234A L235A, N297A, name in Kabat numbering, one-arm antibody) heavy: QVQLVESGGGVVQPGRSLRLSCAASGFTFSNAWMHWVRQAPGKGLEWVAQDKAKSNNYATYYAESVKGRFTISRDDSKNSLYLQMNSLKTEDTAVYYCRYVHYGAYYGVDAWGQGTTVTVSSASTKGPSVFPLAPSSKSTSGGTAALGCLVKDYFPEPVTVSWNSGALTSGVHTFPAVLQSSGLYSLSSVVTVPSSSLGTQTYICNVNHKPSNTKVDKKVEPKSCDKTHTCPPCPAPEAAGGPSVFLFPPKPKDTLMISRTPEVTCVVVDVSHEDPEVKFNWYVDGVEVHNAKTKPREEQYASTYRVVSVLTVLHQDWLNGKEYKCKVSNKALPAPIEKTISKAKGQPREPQVYTLPPSRCELTKNQVSLSCAVKGFYPSDIAVEWESNGQPENNYKTTPPVLDSDGSFFLVSKLTVDKSRWQQGNVFSCSVMHEALHNHYTQKSLSLSPDYKDDDDK EPKSSDKTHTCPPCPAPELLGGPSVFLFPPKPKDTLMISRTPEVTCVVVDVSHEDPEVKFNWYVDGVEVHNAKTKPREEQYNSTYRVVSVLTVLHQDWLNGKEYKCKVSNKALPAPIEKTISKAKGQPREPQVCTLPPSRDELTKNQVSLWCLVKGFYPSDIAVEWESNGQPENNYKTTPPVLDSDGSFFLYSKLTVDKSRWQQGNVFSCSVMHEALHNRYTQKSLSLSP light: DIVMTQSPLSLPVTPGEPASISCRSSQSLVHSNRNTYLHWYQQKPGQAPRLLIYKVSNRFSGVPDRFSGSGSGTDFTLKISRVEAEDVGVYYCGQGTQVPYTFGQGTKLEIKRTVAAPSVFIFPPSDEQLKSGTASVVCLLNNFYPREAKVQWKVDNALQSGNSQESVTEQDSKDSTYSLSSTLTLSKADYEKHKVYACEVTHQGLSSPVTKSFNRGEC
0.54 | CE115HA000 I51E (antibody, human IgG1, kappa, L234A L235A, N297A, name in Kabat numbering, one-arm antibody) heavy: QVQLVESGGGVVQPGRSLRLSCAASGFTFSNAWMHWVRQAPGKGLEWVAQEKAKSNNYATYYAESVKGRFTISRDDSKNSLYLQMNSLKTEDTAVYYCRYVHYGAYYGVDAWGQGTTVTVSSASTKGPSVFPLAPSSKSTSGGTAALGCLVKDYFPEPVTVSWNSGALTSGVHTFPAVLQSSGLYSLSSVVTVPSSSLGTQTYICNVNHKPSNTKVDKKVEPKSCDKTHTCPPCPAPEAAGGPSVFLFPPKPKDTLMISRTPEVTCVVVDVSHEDPEVKFNWYVDGVEVHNAKTKPREEQYASTYRVVSVLTVLHQDWLNGKEYKCKVSNKALPAPIEKTISKAKGQPREPQVYTLPPSRCELTKNQVSLSCAVKGFYPSDIAVEWESNGQPENNYKTTPPVLDSDGSFFLVSKLTVDKSRWQQGNVFSCSVMHEALHNHYTQKSLSLSPDYKDDDDK EPKSSDKTHTCPPCPAPELLGGPSVFLFPPKPKDTLMISRTPEVTCVVVDVSHEDPEVKFNWYVDGVEVHNAKTKPREEQYNSTYRVVSVLTVLHQDWLNGKEYKCKVSNKALPAPIEKTISKAKGQPREPQVCTLPPSRDELTKNQVSLWCLVKGFYPSDIAVEWESNGQPENNYKTTPPVLDSDGSFFLYSKLTVDKSRWQQGNVFSCSVMHEALHNRYTQKSLSLSP light: DIVMTQSPLSLPVTPGEPASISCRSSQSLVHSNRNTYLHWYQQKPGQAPRLLIYKVSNRFSGVPDRFSGSGSGTDFTLKISRVEAEDVGVYYCGQGTQVPYTFGQGTKLEIKRTVAAPSVFIFPPSDEQLKSGTASVVCLLNNFYPREAKVQWKVDNALQSGNSQESVTEQDSKDSTYSLSSTLTLSKADYEKHKVYACEVTHQGLSSPVTKSFNRGEC
6.67 | CE115HA000 H96Y (antibody, human IgG1, kappa, L234A L235A, N297A, name in Kabat numbering, one-arm antibody) heavy: QVQLVESGGGVVQPGRSLRLSCAASGFTFSNAWMHWVRQAPGKGLEWVAQIKAKSNNYATYYAESVKGRFTISRDDSKNSLYLQMNSLKTEDTAVYYCRYVYYGAYYGVDAWGQGTTVTVSSASTKGPSVFPLAPSSKSTSGGTAALGCLVKDYFPEPVTVSWNSGALTSGVHTFPAVLQSSGLYSLSSVVTVPSSSLGTQTYICNVNHKPSNTKVDKKVEPKSCDKTHTCPPCPAPEAAGGPSVFLFPPKPKDTLMISRTPEVTCVVVDVSHEDPEVKFNWYVDGVEVHNAKTKPREEQYASTYRVVSVLTVLHQDWLNGKEYKCKVSNKALPAPIEKTISKAKGQPREPQVYTLPPSRCELTKNQVSLSCAVKGFYPSDIAVEWESNGQPENNYKTTPPVLDSDGSFFLVSKLTVDKSRWQQGNVFSCSVMHEALHNHYTQKSLSLSPDYKDDDDK EPKSSDKTHTCPPCPAPELLGGPSVFLFPPKPKDTLMISRTPEVTCVVVDVSHEDPEVKFNWYVDGVEVHNAKTKPREEQYNSTYRVVSVLTVLHQDWLNGKEYKCKVSNKALPAPIEKTISKAKGQPREPQVCTLPPSRDELTKNQVSLWCLVKGFYPSDIAVEWESNGQPENNYKTTPPVLDSDGSFFLYSKLTVDKSRWQQGNVFSCSVMHEALHNRYTQKSLSLSP light: DIVMTQSPLSLPVTPGEPASISCRSSQSLVHSNRNTYLHWYQQKPGQAPRLLIYKVSNRFSGVPDRFSGSGSGTDFTLKISRVEAEDVGVYYCGQGTQVPYTFGQGTKLEIKRTVAAPSVFIFPPSDEQLKSGTASVVCLLNNFYPREAKVQWKVDNALQSGNSQESVTEQDSKDSTYSLSSTLTLSKADYEKHKVYACEVTHQGLSSPVTKSFNRGEC

More lines, now with the values behind:

Binder | KD ratio (KD of CE115HA000/KD of altered form)
CE115HA000 H96Q (antibody, human IgG1, kappa, L234A L235A, N297A, name in Kabat numbering, one-arm antibody) heavy: QVQLVESGGGVVQPGRSLRLSCAASGFTFSNAWMHWVRQAPGKGLEWVAQIKAKSNNYATYYAESVKGRFTISRDDSKNSLYLQMNSLKTEDTAVYYCRYVQYGAYYGVDAWGQGTTVTVSSASTKGPSVFPLAPSSKSTSGGTAALGCLVKDYFPEPVTVSWNSGALTSGVHTFPAVLQSSGLYSLSSVVTVPSSSLGTQTYICNVNHKPSNTKVDKKVEPKSCDKTHTCPPCPAPEAAGGPSVFLFPPKPKDTLMISRTPEVTCVVVDVSHEDPEVKFNWYVDGVEVHNAKTKPREEQYASTYRVVSVLTVLHQDWLNGKEYKCKVSNKALPAPIEKTISKAKGQPREPQVYTLPPSRCELTKNQVSLSCAVKGFYPSDIAVEWESNGQPENNYKTTPPVLDSDGSFFLVSKLTVDKSRWQQGNVFSCSVMHEALHNHYTQKSLSLSPDYKDDDDK EPKSSDKTHTCPPCPAPELLGGPSVFLFPPKPKDTLMISRTPEVTCVVVDVSHEDPEVKFNWYVDGVEVHNAKTKPREEQYNSTYRVVSVLTVLHQDWLNGKEYKCKVSNKALPAPIEKTISKAKGQPREPQVCTLPPSRDELTKNQVSLWCLVKGFYPSDIAVEWESNGQPENNYKTTPPVLDSDGSFFLYSKLTVDKSRWQQGNVFSCSVMHEALHNRYTQKSLSLSP light: DIVMTQSPLSLPVTPGEPASISCRSSQSLVHSNRNTYLHWYQQKPGQAPRLLIYKVSNRFSGVPDRFSGSGSGTDFTLKISRVEAEDVGVYYCGQGTQVPYTFGQGTKLEIKRTVAAPSVFIFPPSDEQLKSGTASVVCLLNNFYPREAKVQWKVDNALQSGNSQESVTEQDSKDSTYSLSSTLTLSKADYEKHKVYACEVTHQGLSSPVTKSFNRGEC | 1.36
CE115HA000 H96R (antibody, human IgG1, kappa, L234A L235A, N297A, name in Kabat numbering, one-arm antibody) heavy: QVQLVESGGGVVQPGRSLRLSCAASGFTFSNAWMHWVRQAPGKGLEWVAQIKAKSNNYATYYAESVKGRFTISRDDSKNSLYLQMNSLKTEDTAVYYCRYVRYGAYYGVDAWGQGTTVTVSSASTKGPSVFPLAPSSKSTSGGTAALGCLVKDYFPEPVTVSWNSGALTSGVHTFPAVLQSSGLYSLSSVVTVPSSSLGTQTYICNVNHKPSNTKVDKKVEPKSCDKTHTCPPCPAPEAAGGPSVFLFPPKPKDTLMISRTPEVTCVVVDVSHEDPEVKFNWYVDGVEVHNAKTKPREEQYASTYRVVSVLTVLHQDWLNGKEYKCKVSNKALPAPIEKTISKAKGQPREPQVYTLPPSRCELTKNQVSLSCAVKGFYPSDIAVEWESNGQPENNYKTTPPVLDSDGSFFLVSKLTVDKSRWQQGNVFSCSVMHEALHNHYTQKSLSLSPDYKDDDDK EPKSSDKTHTCPPCPAPELLGGPSVFLFPPKPKDTLMISRTPEVTCVVVDVSHEDPEVKFNWYVDGVEVHNAKTKPREEQYNSTYRVVSVLTVLHQDWLNGKEYKCKVSNKALPAPIEKTISKAKGQPREPQVCTLPPSRDELTKNQVSLWCLVKGFYPSDIAVEWESNGQPENNYKTTPPVLDSDGSFFLYSKLTVDKSRWQQGNVFSCSVMHEALHNRYTQKSLSLSP light: DIVMTQSPLSLPVTPGEPASISCRSSQSLVHSNRNTYLHWYQQKPGQAPRLLIYKVSNRFSGVPDRFSGSGSGTDFTLKISRVEAEDVGVYYCGQGTQVPYTFGQGTKLEIKRTVAAPSVFIFPPSDEQLKSGTASVVCLLNNFYPREAKVQWKVDNALQSGNSQESVTEQDSKDSTYSLSSTLTLSKADYEKHKVYACEVTHQGLSSPVTKSFNRGEC | 1.59
CE115HA000 H96S (antibody, human IgG1, kappa, L234A L235A, N297A, name in Kabat numbering, one-arm antibody) heavy: QVQLVESGGGVVQPGRSLRLSCAASGFTFSNAWMHWVRQAPGKGLEWVAQIKAKSNNYATYYAESVKGRFTISRDDSKNSLYLQMNSLKTEDTAVYYCRYVSYGAYYGVDAWGQGTTVTVSSASTKGPSVFPLAPSSKSTSGGTAALGCLVKDYFPEPVTVSWNSGALTSGVHTFPAVLQSSGLYSLSSVVTVPSSSLGTQTYICNVNHKPSNTKVDKKVEPKSCDKTHTCPPCPAPEAAGGPSVFLFPPKPKDTLMISRTPEVTCVVVDVSHEDPEVKFNWYVDGVEVHNAKTKPREEQYASTYRVVSVLTVLHQDWLNGKEYKCKVSNKALPAPIEKTISKAKGQPREPQVYTLPPSRCELTKNQVSLSCAVKGFYPSDIAVEWESNGQPENNYKTTPPVLDSDGSFFLVSKLTVDKSRWQQGNVFSCSVMHEALHNHYTQKSLSLSPDYKDDDDK EPKSSDKTHTCPPCPAPELLGGPSVFLFPPKPKDTLMISRTPEVTCVVVDVSHEDPEVKFNWYVDGVEVHNAKTKPREEQYNSTYRVVSVLTVLHQDWLNGKEYKCKVSNKALPAPIEKTISKAKGQPREPQVCTLPPSRDELTKNQVSLWCLVKGFYPSDIAVEWESNGQPENNYKTTPPVLDSDGSFFLYSKLTVDKSRWQQGNVFSCSVMHEALHNRYTQKSLSLSP light: DIVMTQSPLSLPVTPGEPASISCRSSQSLVHSNRNTYLHWYQQKPGQAPRLLIYKVSNRFSGVPDRFSGSGSGTDFTLKISRVEAEDVGVYYCGQGTQVPYTFGQGTKLEIKRTVAAPSVFIFPPSDEQLKSGTASVVCLLNNFYPREAKVQWKVDNALQSGNSQESVTEQDSKDSTYSLSSTLTLSKADYEKHKVYACEVTHQGLSSPVTKSFNRGEC | 1.15
